# Measured values taken from paper PMC6028919, “Scc2 Is a Potent Activator of Cohesin’s ATPase that Promotes Loading by Binding Scc1 without Pds5” (Molecular Cell, 2018).
# B1: His6-Pds5 (natural protein)
# chain: MAKGAVTKLKFNSPIISTSDQLISTNELLDRLKALHEELASLDQDNTDLTGLDKYRDALVSRKLLKHKDVGIRAFTACCLSDILRLYAPDAPYTDAQLTDIFKLVLSQFEQLGDQENGYHIQQTYLITKLLEYRSIVLLADLPSSNNLLIELFHIFYDPNKSFPARLFNVIGGILGEVISEFDSVPLEVLRLIFNKFLTYNPNEIPEGLNVTSDCGYEVSLILCDTYSNRMSRHLTKYYSEIIHEATNDDNNSRLLTVVVKLHKLVLRLWETVPELINAVIGFIYHELSSENELFRKEATKLIGQILTSYSDLNFVSTHSDTFKAWISKIADISPDVRVEWTESIPQIIATREDISKELNQALAKTFIDSDPRVRRTSVMIFNKVPVTEIWKNITNKAIYTSLLHLAREKHKEVRELCINTMAKFYSNSLNEIERTYQNKEIWEIIDTIPSTLYNLYYINDLNINEQVDSVIFEYLLPFEPDNDKRVHRLLTVLSHFDKKAFTSFFAFNARQIKISFAISKYIDFSKFLNNQESMSSSQGPIVMNKYNQTLQWLASGLSDSTKAIDALETIKQFNDERIFYLLNACVTNDIPFLTFKNCYNELVSKLQTPGLFKKYNISTGASIMPRDIAKVIQILLFRASPIIYNVSNISVLLNLSNNSDAKQLDLKRRILDDISKVNPTLFKDQIRTLKTIIKDLDDPDAEKNDNLSLEEALKTLYKASKTLKDQVDFDDTFFFTKLYDFAVESKPEITKYATKLIALSPKAEETLKKIKIRILPLDLQKDKYFTSHIIVLMEIFKKFPHVLNDDSTDIISYLIKEVLLSNQVVGDSKKEIDWVEDSLLSDTKYSAIGNKVFTLKLFTNKLRSIAPDVPRDELAESFTEKTMKLFFYLIASGGELISEFNKEFYPTPSNYQTKLRCVAGIQVLKLARISNLNNFIKPSDIIKLINLVEDESLPVRKTFLEQLKDYVANELISIKFLPLVFFTAYEPDVELKTTTKIWINFTFGLKSFKKGTIFERALPRLIHAIAHHPDIVGGLDSEGDAYLNALTTAIDYLLFYFDSIAAQENFSLLYYLSERVKNYQDKLVEDEIDEEEGPQKEEAPKKHRPYGQKMYIIGELSQMILLNLKEKKNWQHSAYPGKLNLPSDLFKPFATVQEAQLSFKTYIPESLTEKIQNNIKAKIGRILHTSQTQRQRLQKRLLAHENNESQKKKKKVHHARSQADDEEGDGDRESDSDDDSYSPSNKNETKKGHENIVMKKLRVRKEVDYKDDEDDDIEMT
# B2: GFP-ΔN132-Scc2-1xStrepII (domain or fragment, S. cerevisiae, UniProt Q04002 133-1493, looked up)
# chain: KSEIVSRPEAKHKLESVTSNAGNLSFNDNSSNKKTKTSTGVTMTQANLAEQYLNDLKNILDIVGFDQNSAEIGNIEYWLQLPNKKFVLTTNCLTKLQMTIKNITDNPQLSNSIEITWLLRLLDVMVCNIKFSKSSLKMGLDDSMLRYIALLSTIVLFNIFLLGKNDSNLHRESYIMEPVNFLSDLIESLKILTIEYGSLKIEFDTFQEALELLPKYIRNGPFLDDNVTAKLVYIFSDLLMNNDIEATTNIQFQSFWDNVKRISSDILVSLFGSFDQQRGFIIEELLSHIEKLPTKRIQKKLRKVGNQNIYITDFTFTLMSMLENINCYSFCNQMKDIAPENIDLLKNEYKKQEEFLFNIVEHINDTILERFFKNPSALRYVIDNFVQDLLLLISSPQWPVTEKILSSLLKRLLSVYSPSMQVSANIETICLQLIGNIGSTIFDIKCSTRDHEDNNLIKMINYPETLPHFFKSFEECIAYNETIKCRRSATRFLWNLRLGTILILEEYTKDAKEQIITVDNELKKILEQIKDGGLGPELENREADFSTIKLDYFSILHAFELLNLYDPYLKLILSLLAKDKIKLRSTAIKCLSMLASKDKVILSNPMVKETIHRRLNDSSASVKDAILDLVSINSSYFEFYQQINNNYNDDSIMVRKHVLRINEKMYDETNDIVTKVYVIARILMKIEDEEDNIIDMARLILLNRWILKVHEVLDQPEKLKEISSSVLLVMSRVAIMNEKCSQLFDLFLNFYLLNKEAHSKEAYDKITHVLTILTDFLVQKIVELNSDDTNEKNSIVDKQNFLNLLAKFADSTVSFLTKDHITALYPYMVSDEKSDFHYYILQVFRCTFEKLANFKQKFLYDLETTLLSRLPKMNVREIDEAMPLIWSVATHRHDTARVAKACSSCLSHLHPYINKANNEEAAIVVDGKLQRLIYLSTGFARFCFPKPSNDKIAFLQEGETLYEHITKCLLVLSKDKITHVIRRVAVKNLTKLCGNHPKLFNSRHVLHLLDKEFQSDQLDIKLVILESLYDLFLLEERKSVRNTGVNSTLSSNSILKKKLLKTNRVEFANDGVCSALATRFLDNILQLCLLRDLKNSLVAIRLLKLILKFGYTNPSHSIPTVIALFASTSQYIRHVAYELLEDLFEKYETLVFSSLSRGVTKAIHYSIHTDEKYYYKHDHFLSLLEKLCGTGKKNGPKFFKVLKRIMQSYLDDITDLTSTNSSVQKSIFVLCTNISNITFVSQYDLVSLLKTIDLTTDRLKEVIMDEIGDNVSSLSVSEEKLSGIILIQLSLQDLGTYLLHLYGLRDDVLLLDIVEESELKNKQLPAKKPDISKFSAQLENIEQYSSNGKLLTYFRKHVKDT
# notes: Scc2, S. cerevisiae, synthetic codon-optimised gene; also called GFP-Scc2; Scc2-GFP; source: Sf9, baculovirus, purified (StrepTrap, gel filtration); not shown: GFP, N-terminal, kept; StrepII, C-terminal, kept
# How the values were obtained:
# [1] = molecular target: cohesin tetramer (Smc1, Smc3, Scc1, Scc3) (S. cerevisiae) (UniProt P32908)
# [2] = molecular target: T1, cohesin tetramer with scc1Δ152–256 (Smc1, Smc3, Scc1Δ152-256, Scc3) (S. cerevisiae, UniProt P32908 1-1225; P47037 1-1230; Q12158 1-566; P40541 1-1150, Δ152-256); experiment: co-IP; GFP-Scc2 held by anti-GFP antibody on Protein G Dynabeads; tetramers and GFP-Scc2 in an ATPase reaction, 25°C, 45 min, then beads 45 min at room temperature; washes with 100 mM NaCl; Coomassie-stained SDS-PAGE; conditions: both partners purified
# T1 construct: Smc1, S. cerevisiae, synthetic codon-optimised gene; Smc3, S. cerevisiae, synthetic codon-optimised gene; Scc1 (kleisin; Mcd1), S. cerevisiae, synthetic codon-optimised gene; Scc3, S. cerevisiae, synthetic codon-optimised gene; source: Sf9, co-expressed (baculovirus), purified (StrepTrap, gel filtration); not shown: 2xStrepII, C-terminal, kept; copies: + + +
# [3] = molecular target: T2, cohesin tetramer (Smc1, Smc3, Scc1, Scc3) (S. cerevisiae, UniProt P32908 1-1225; P47037 1-1230; Q12158 1-566; P40541 1-1150); experiment: as above; conditions: both partners purified
# T2 construct: Smc1, S. cerevisiae, synthetic codon-optimised gene; Smc3, S. cerevisiae, synthetic codon-optimised gene; Scc1 (kleisin; Mcd1), S. cerevisiae, synthetic codon-optimised gene; Scc3, S. cerevisiae, synthetic codon-optimised gene; also called wild-type tetramers; source: Sf9, co-expressed (baculovirus), purified (StrepTrap, gel filtration); not shown: 2xStrepII, C-terminal, …
# T1 sequence (P32908 whole entry, stated change not applied, chain 1 of 4): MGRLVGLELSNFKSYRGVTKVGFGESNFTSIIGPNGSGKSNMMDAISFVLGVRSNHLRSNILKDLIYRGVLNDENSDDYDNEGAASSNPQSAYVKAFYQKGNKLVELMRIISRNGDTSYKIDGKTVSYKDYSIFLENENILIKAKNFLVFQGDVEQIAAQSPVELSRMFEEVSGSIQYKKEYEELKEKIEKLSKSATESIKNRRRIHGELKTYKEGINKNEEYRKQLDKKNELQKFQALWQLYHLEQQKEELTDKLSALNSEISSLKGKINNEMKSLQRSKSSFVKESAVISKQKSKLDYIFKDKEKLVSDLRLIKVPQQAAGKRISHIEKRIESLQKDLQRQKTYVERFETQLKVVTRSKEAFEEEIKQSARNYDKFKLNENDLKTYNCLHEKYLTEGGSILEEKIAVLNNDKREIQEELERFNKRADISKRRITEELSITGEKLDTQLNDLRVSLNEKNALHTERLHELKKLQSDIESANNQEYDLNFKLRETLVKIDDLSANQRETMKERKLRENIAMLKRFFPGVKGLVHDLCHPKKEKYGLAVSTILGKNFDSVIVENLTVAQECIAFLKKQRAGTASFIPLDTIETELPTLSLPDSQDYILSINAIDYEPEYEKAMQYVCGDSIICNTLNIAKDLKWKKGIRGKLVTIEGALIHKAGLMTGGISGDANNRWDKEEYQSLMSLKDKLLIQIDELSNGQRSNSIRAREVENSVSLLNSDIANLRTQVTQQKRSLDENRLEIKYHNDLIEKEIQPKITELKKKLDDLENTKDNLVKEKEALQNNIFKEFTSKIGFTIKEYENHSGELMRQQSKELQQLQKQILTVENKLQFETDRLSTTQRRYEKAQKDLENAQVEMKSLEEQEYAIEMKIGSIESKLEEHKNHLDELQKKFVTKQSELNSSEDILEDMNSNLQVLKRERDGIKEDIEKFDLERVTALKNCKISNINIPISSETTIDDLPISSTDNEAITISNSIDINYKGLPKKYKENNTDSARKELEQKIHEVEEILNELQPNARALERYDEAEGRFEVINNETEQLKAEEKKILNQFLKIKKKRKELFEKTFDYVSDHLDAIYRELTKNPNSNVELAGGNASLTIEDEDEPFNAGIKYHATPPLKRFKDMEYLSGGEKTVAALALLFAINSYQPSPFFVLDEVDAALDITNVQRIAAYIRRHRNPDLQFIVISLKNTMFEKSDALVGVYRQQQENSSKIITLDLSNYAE
# T1 sequence (P47037 whole entry, stated change not applied, chain 2 of 4): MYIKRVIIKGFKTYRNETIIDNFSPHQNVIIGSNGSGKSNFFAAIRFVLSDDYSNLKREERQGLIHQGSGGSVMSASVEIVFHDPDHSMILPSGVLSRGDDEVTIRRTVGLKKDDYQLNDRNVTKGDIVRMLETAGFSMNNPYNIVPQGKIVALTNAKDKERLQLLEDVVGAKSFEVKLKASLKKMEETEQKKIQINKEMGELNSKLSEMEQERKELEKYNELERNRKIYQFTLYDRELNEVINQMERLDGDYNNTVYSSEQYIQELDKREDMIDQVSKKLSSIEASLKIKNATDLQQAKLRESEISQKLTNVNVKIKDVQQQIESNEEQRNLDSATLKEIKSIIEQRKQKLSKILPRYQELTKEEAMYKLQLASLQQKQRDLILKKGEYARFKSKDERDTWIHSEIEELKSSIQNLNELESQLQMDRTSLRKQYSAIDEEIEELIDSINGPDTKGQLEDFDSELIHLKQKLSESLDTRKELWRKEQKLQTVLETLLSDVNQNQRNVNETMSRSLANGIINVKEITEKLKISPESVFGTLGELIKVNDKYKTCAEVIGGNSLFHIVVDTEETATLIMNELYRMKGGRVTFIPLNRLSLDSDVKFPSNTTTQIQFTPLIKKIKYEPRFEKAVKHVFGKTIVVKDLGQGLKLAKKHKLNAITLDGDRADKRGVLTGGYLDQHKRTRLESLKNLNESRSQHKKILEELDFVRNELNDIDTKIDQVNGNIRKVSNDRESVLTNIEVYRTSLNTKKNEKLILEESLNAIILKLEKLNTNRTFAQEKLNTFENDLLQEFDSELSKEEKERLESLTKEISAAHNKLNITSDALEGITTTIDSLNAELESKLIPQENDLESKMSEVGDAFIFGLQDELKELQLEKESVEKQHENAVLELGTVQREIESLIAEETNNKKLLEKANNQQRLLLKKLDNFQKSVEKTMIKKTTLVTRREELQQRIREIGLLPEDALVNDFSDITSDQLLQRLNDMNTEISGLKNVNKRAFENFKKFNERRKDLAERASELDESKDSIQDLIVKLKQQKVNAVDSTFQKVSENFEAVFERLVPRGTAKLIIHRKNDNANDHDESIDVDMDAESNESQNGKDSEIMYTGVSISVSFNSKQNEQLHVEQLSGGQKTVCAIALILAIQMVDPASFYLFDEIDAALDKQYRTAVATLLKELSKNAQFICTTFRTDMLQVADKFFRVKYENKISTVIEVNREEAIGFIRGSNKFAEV
# T1 sequence (Q12158 other isoform, or with tags, fused parts or gaps Δ152-256 | Δ152-256 | mutant, chain 3 of 4): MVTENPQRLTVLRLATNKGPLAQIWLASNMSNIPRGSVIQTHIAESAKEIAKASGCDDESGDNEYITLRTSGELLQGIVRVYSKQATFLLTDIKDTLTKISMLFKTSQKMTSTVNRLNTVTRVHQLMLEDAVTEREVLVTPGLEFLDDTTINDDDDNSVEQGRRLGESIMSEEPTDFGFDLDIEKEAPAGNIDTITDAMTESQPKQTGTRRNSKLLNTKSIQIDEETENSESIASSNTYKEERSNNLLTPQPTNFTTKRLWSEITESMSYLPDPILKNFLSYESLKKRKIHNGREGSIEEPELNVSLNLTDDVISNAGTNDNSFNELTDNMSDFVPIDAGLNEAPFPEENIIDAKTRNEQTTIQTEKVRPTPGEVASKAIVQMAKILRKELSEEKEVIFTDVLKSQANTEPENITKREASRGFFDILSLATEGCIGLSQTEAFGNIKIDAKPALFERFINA
# T1 sequence (P40541 whole entry, stated change not applied, chain 4 of 4): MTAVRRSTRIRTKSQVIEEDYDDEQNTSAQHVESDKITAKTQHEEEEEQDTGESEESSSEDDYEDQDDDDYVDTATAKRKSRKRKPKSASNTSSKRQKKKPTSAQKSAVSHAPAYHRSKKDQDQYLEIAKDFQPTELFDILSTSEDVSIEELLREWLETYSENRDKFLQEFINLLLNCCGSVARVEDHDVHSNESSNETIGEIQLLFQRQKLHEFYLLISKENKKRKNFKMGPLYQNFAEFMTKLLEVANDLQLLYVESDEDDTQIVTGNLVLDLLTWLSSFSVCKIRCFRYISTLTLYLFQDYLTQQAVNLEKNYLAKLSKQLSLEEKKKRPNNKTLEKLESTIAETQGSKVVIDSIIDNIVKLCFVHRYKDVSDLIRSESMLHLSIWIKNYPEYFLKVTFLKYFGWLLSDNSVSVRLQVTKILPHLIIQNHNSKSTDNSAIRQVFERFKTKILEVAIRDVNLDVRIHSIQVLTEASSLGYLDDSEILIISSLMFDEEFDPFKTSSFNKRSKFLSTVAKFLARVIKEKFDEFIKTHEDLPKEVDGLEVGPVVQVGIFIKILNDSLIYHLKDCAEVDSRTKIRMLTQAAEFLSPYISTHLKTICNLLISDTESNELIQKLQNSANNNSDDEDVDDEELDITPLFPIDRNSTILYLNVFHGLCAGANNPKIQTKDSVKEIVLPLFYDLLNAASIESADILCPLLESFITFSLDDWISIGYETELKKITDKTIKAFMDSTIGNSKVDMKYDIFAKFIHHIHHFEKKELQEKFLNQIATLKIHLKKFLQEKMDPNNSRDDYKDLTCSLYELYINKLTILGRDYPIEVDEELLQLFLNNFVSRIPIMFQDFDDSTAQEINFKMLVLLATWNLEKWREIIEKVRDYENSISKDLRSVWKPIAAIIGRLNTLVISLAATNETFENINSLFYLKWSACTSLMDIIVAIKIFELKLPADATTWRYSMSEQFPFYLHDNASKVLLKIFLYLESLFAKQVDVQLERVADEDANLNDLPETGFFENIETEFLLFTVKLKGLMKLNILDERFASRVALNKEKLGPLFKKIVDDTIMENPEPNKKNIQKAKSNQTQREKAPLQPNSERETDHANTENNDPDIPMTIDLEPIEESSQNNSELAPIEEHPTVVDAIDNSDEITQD
Binder,"Scc2-stimulated ATPase activity of cohesin tetramers with a three-fold molar excess of Pds5, in the absence of DNA [1]",binding result [2],binding result [3]
B1,2 fold,,
B2,,binds,binds
